According to patent US12104181B2, “Compositions and methods for treating viral infections targeting TRIM7” (THE BOARD OF REGENTS OF THE UNIVERSITY OF TEXAS SYSTEM, priority 2021, dated 2024):

Test system: coxsackievirus B3 (CVB3-GFP)
Assay type: cell-based
Details: HeLa cells, replicate R1; for Percent Infected R1: GFP-positive cells within RFP-positive gate

B1: RNF113B: human RING type E3 ligase expressed from lentiviral vector (protein, UniProt Q8IZP6 1-322, looked up)
RING finger protein 113B: MAAPPSPGRTADQADQVCTFLFKKPGRKGAAGLRKRPACDPEHGESSSSGDEGDTVAQPPRVAPRPRGLHSWQKAAHGDRRGEEAAPESLDVVYRSTRSAKPVGPEDMGATADFEQDTEKEHHTPTILKCSQRVQEALRGREHDHIYRGIHSYLRYLKPKDTSMGNSSSGMARKGPIRAPGHLRATVRWDYQPDICKDYKETGFCGFGDSCKFLHDRSDYKLGWEIERELEEGRYCICEDENHEVGSEEEEIPFRCFICRQAFQNPVVTKCRHYFCESCALEHFRATPRCYICDQPTGGIFNPAKELMAKLQKLQAAEGKKR
modifications: lentiviral expression
notes: human RING type E3 ligase expressed from lentiviral vector
Q: Which results are given for B1?
A: Percent Infected R1: 88%; Z score R1: −0.01

B2: RNF133: human RING type E3 ligase expressed from lentiviral vector (protein, UniProt Q8WVZ7 1-376, looked up)
E3 ubiquitin-protein ligase …: MHLLKVGTWRNNTASSWLMKFSVLWLVSQNCCRASVVWMAYMNISFHVGNHVLSELGETGVFGRSSTLKRVAGVIVPPEGKIQNACNPNTIFSRSKYSETWLALIERGGCTFTQKIKVATEKGASGVIIYNVPGTGNQVFPMFHQAFEDVVVVMIGNLKGTEIFHLIKKGVLITAVVEVGRKHIIWMNHYLVSFVIVTTATLAYFIFYHIHRLCLARIQNRRWQRLTTDLQNTFGQLQLRVVKEGDEEINPNGDSCVICFERYKPNDIVRILTCKHFFHKNCIDPWILPHGTCPICKCDILKVLGIQVVVENGTEPLQVLMSNELPETLSPSEEETNNEVSPAGTSDKVIHVEENPTSQNNDIQPHSVVEDVHPSP
modifications: lentiviral expression
notes: as for B1
Q: B2 was tested. Which “Percent Infected R1” value did it give?
A: 94.9%

Q: And the “Z score R1” value?
A: 0.08

B3: RNF10: human RING type E3 ligase expressed from lentiviral vector (protein, UniProt Q8N5U6 1-811, looked up)
E3 ubiquitin-protein ligase …: MPLSSPNAAATASDMDKNSGSNSSSASSGSSKGQQPPRSASAGPAGESKPKSDGKNSSGSKRYNRKRELSYPKNESFNNQSRRSSSQKSKTFNKMPPQRGGGSSKLFSSSFNGGRRDEVAEAQRAEFSPAQFSGPKKINLNHLLNFTFEPRGQTGHFEGSGHGSWGKRNKWGHKPFNKELFLQANCQFVVSEDQDYTAHFADPDTLVNWDFVEQVRICSHEVPSCPICLYPPTAAKITRCGHIFCWACILHYLSLSEKTWSKCPICYSSVHKKDLKSVVATESHQYVVGDTITMQLMKREKGVLVALPKSKWMNVDHPIHLGDEQHSQYSKLLLASKEQVLHRVVLEEKVALEQQLAEEKHTPESCFIEAAIQELKTREEALSGLAGSRREVTGVVAALEQLVLMAPLAKESVFQPRKGVLEYLSAFDEETTEVCSLDTPSRPLALPLVEEEEAVSEPEPEGLPEACDDLELADDNLKEGTICTESSQQEPITKSGFTRLSSSPCYYFYQAEDGQHMFLHPVNVRCLVREYGSLERSPEKISATVVEIAGYSMSEDVRQRHRYLSHLPLTCEFSICELALQPPVVSKETLEMFSDDIEKRKRQRQKKAREERRRERRIEIEENKKQGKYPEVHIPLENLQQFPAFNSYTCSSDSALGPTSTEGHGALSISPLSRSPGSHADFLLTPLSPTASQGSPSFCVGSLEEDSPFPSFAQMLRVGKAKADVWPKTAPKKDENSLVPPAPVDSDGESDNSDRVPVPSFQNSFSQAIEAAFMKLDTPATSDPLSEEKGGKKRKKQKQKLLFSTSVVHTK
modifications: lentiviral expression
notes: as for B1
Q: What does the source list for B3?
A: Percent Infected R1: 88.9%; Z score R1: 0

B4: RNF146: human RING type E3 ligase expressed from lentiviral vector (protein, UniProt Q9NTX7 1-359, looked up)
E3 ubiquitin-protein ligase …: MMAGCGEIDHSINMLPTNRKANESCSNTAPSLTVPECAICLQTCVHPVSLPCKHVFCYLCVKGASWLGKRCALCRQEIPEDFLDKPTLLSPEELKAASRGNGEYAWYYEGRNGWWQYDERTSRELEDAFSKGKKNTEMLIAGFLYVADLENMVQYRRNEHGRRRKIKRDIIDIPKKGVAGLRLDCDANTVNLARESSADGADSVSAQSGASVQPLVSSVRPLTSVDGQLTSPATPSPDASTSLEDSFAHLQLSGDNTAERSHRGEGEEDHESPSSGRVPAPDTSIEETESDASSDSEDVSAVVAQHSLTQQRLLVSNANQTVPDRSDRSGTDRSVAGGGTVSVSVRSRRPDGQCTVTEV
Q: What does the source list for B4?
A: Percent Infected R1: 89.7%; Z score R1: 0.01

B5: RNFT2: human RING type E3 ligase expressed from lentiviral vector (protein, UniProt Q96EX2 1-444, looked up)
E3 ubiquitin-protein ligase …: MWLFTVNQVLRKMQRRHSSNTDNIPPERNRSQALSSEASVDEGGVFESLKAEAASPPALFSGLSGSLPTSSFPSSLVLGSSAGGGDVFIQMPASREEGGGRGEGGAYHHRQPHHHFHHGGHRGGSLLQHVGGDHRGHSEEGGDEQPGTPAPALSELKAVICWLQKGLPFILILLAKLCFQHKLGIAVCIGMASTFAYANSTLREQVSLKEKRSVLVILWILAFLAGNTLYVLYTFSSQQLYNSLIFLKPNLEMLDFFDLLWIVGIADFVLKYITIALKCLIVALPKIILAVKSKGKFYLVIEELSQLFRSLVPIQLWYKYIMGDDSSNSYFLGGVLIVLYSLCKSFDICGRVGGVRKALKLLCTSQNYGVRATGQQCTEAGDICAICQAEFREPLILLCQHVFCEECLCLWLDRERTCPLCRSVAVDTLRCWKDGATSAHFQVY
Q: How did the “Percent Infected R1” value turn out when B5 was run?
A: 86.5%

Q: And the “Z score R1” value?
A: −0.03

B6: RNF11: human RING type E3 ligase expressed from lentiviral vector (protein, UniProt Q9Y3C5 2-154, looked up)
RING finger protein 11: GNCLKSPTSDDISLLHESQSDRASFGEGTEPDQEPPPPYQEQVPVPVYHPTPSQTRLATQLTEEEQIRIAQRIGLIQHLPKGVYDPGRDGSEKKIRECVICMMDFVYGDPIRFLPCMHIYHLDCIDDWLMRSFTCPSCMEPVDAALLSSYETN
Q: Which “Percent Infected R1” value does the source give for B6 here?
A: 90.7%

Q: And the “Z score R1” value?
A: 0.03

B7: RNF2: human RING type E3 ligase expressed from lentiviral vector (protein, UniProt Q99496 2-336, looked up)
E3 ubiquitin-protein ligase …: SQAVQTNGTQPLSKTWELSLYELQRTPQEAITDGLEIVVSPRSLHSELMCPICLDMLKNTMTTKECLHRFCADCIITALRSGNKECPTCRKKLVSKRSLRPDPNFDALISKIYPSRDEYEAHQERVLARINKHNNQQALSHSIEEGLKIQAMNRLQRGKKQQIENGSGAEDNGDSSHCSNASTHSNQEAGPSNKRTKTSDDSGLELDNNNAAMAIDPVMDGASEIELVFRPHPTLMEKDDSAQTRYIKTSGNATVDHLSKYLAVRLALEELRSKGESNQMNLDTASEKQYTIYIATASGQFTVLNGSFSLELVSEKYWKVNKPMELYYAPTKEHK
Q: With B7 as the molecule, how does the “Percent Infected R1” value read?
A: 87.4%

Q: What about the “Z score R1” value of the same molecule?
A: −0.02

B8: RNF139: human RING type E3 ligase expressed from lentiviral vector (protein, UniProt Q8WU17 2-664, looked up)
E3 ubiquitin-protein ligase …: AAVGPPQQQVRMAHQQVWAALEVALRVPCLYIIDAIFNSYPDSSQSRFCIVLQIFLRLFGVFASSIVLILSQRSLFKFYTYSSAFLLAATSVLVNYYASLHIDFYGAYNTSAFGIELLPRKGPSLWMALIVLQLTFGIGYVTLLQIHSIYSQLIILDLLVPVIGLITELPLHIRETLLFTSSLILTLNTVFVLAVKLKWFYYSTRYVYLLVRHMYRIYGLQLLMEDTWKRIRFPDILRVFWLTRVTAQATVLMYILRMANETDSFFISWDDFWDLICNLIISGCDSTLTVLGMSAVISSVAHYLGLGILAFIGSTEEDDRRLGFVAPVLFFILALQTGLSGLRPEERLIRLSRNMCLLLTAVLHFIHGMTDPVLMSLSASHVSSFRRHFPVLFVSACLFILPVLLSYVLWHHYALNTWLFAVTAFCVELCLKVIVSLTVYTLFMIDGYYNVLWEKLDDYVYYVRSTGSIIEFIFGVVMFGNGAYTMMFESGSKIRAFMMCLHAYFNIYLQAKNGWKTFMNRRTAVKKINSLPEIKGSRLQEINDVCAICYHEFTTSARITPCNHYFHALCLRKWLYIQDTCPMCHQKVYIEDDIKDNSNVSNNNGFIPPNETPEEAVREAAAESDRELNEDDSTDCDDDVQRERNGVIQHTGAAAEEFNDDTD
Q: B8 was tested. Which “Percent Infected R1” value did it give?
A: 77.5%

Q: What about the “Z score R1” value of the same molecule?
A: −0.14

B9: RNF148: human RING type E3 ligase expressed from lentiviral vector (protein, UniProt Q8N7C7 35-305, looked up)
RING finger protein 148: KAIWTAHLNITFQVGNEITSELGESGVFGNHSPLERVSGVVALPEGWNQNACHPLTNFSRPKQADSWLALIERGGCTFTHKINVAAEKGANGVIIYNYQGTGSKVFPMSHQGTENIVAVMISNLKGMEILHSIQKGVYVTVIIEVGRMHMQWVSHYIMYLFTFLAATIAYFYLDCVWRLTPRVPNSFTRRRSQIKTDVKKAIDQLQLRVLKEGDEELDLNEDNCVVCFDTYKPQDVVRILTCKHFFHKACIDPWLLAHRTCPMCKCDILKT
Q: Which results are given for B9?
A: Percent Infected R1: 82.3%; Z score R1: −0.08

B10: RNF111: human RING type E3 ligase expressed from lentiviral vector (protein, UniProt Q6ZNA4 1-994, looked up)
E3 ubiquitin-protein ligase …: MSQWTPEYNELYTLKVDMKSEIPSDAPKTQESLKGILLHPEPIGAAKSFPAGVEMINSKVGNEFSHLCDDSQKQEKEMNGNQQEQEKSLVVRKKRKSQQAGPSYVQNCVKENQGILGLRQHLGTPSDEDNDSSFSDCLSSPSSSLHFGDSDTVTSDEDKEVSVRHSQTILNAKSRSHSARSHKWPRTETESVSGLLMKRPCLHGSSLRRLPCRKRFVKNNSSQRTQKQKERILMQRKKREVLARRKYALLPSSSSSSENDLSSESSSSSSTEGEEDLFVSASENHQNNPAVPSGSIDEDVVVIEASSTPQVTANEEINVTSTDSEVEIVTVGESYRSRSTLGHSRSHWSQGSSSHASRPQEPRNRSRISTVIQPLRQNAAEVVDLTVDEDEPTVVPTTSARMESQATSASINNSNPSTSEQASDTASAVTSSQPSTVSETSATLTSNSTTGTSIGDDSRRTTSSAVTETGPPAMPRLPSCCPQHSPCGGSSQNHHALGHPHTSCFQQHGHHFQHHHHHHHTPHPAVPVSPSFSDPACPVERPPQVQAPCGANSSSGTSYHEQQALPVDLSNSGIRSHGSGSFHGASAFDPCCPVSSSRAAIFGHQAAAAAPSQPLSSIDGYGSSMVAQPQPQPPPQPSLSSCRHYMPPPYASLTRPLHHQASACPHSHGNPPPQTQPPPQVDYVIPHPVHAFHSQISSHATSHPVAPPPPTHLASTAAPIPQHLPPTHQPISHHIPATAPPAQRLHPHEVMQRMEVQRRRMMQHPTRAHERPPPHPHRMHPNYGHGHHIHVPQTMSSHPRQAPERSAWELGIEAGVTAATYTPGALHPHLAHYHAPPRLHHLQLGALPLMVPDMAGYPHIRYISSGLDGTSFRGPFRGNFEELIHLEERLGNVNRGASQGTIERCTYPHKYKKVTTDWFSQRKLHCKQDGEEGTEEDTEEKCTICLSILEEGEDVRRLPCMHLFHQVCVDQWLITNKKCPICRVDIEAQLPSES
Q: Which results are given for B10?
A: Percent Infected R1: 84.2%; Z score R1: −0.06
